According to patent US20230086530A1 (SHANGHAI ESCUGEN BIOTECHNOLOGY, published 2023):
Where two headings read alike, the source gives them in different places. One block for each binder: values may come before it.

Key:
[1] = target: T1, CD47 on human platelets (human, UniProt Q08722 19-323); experiment: flow cytometry, human platelets
T1 construct: whole, on cells
Description: (§1) After the platelets were counted with a hemocytometer, the density of the platelets was adjusted to 1.5×10⁷/mL with PBS+1% FBS, and 100 μL of above sample was added to each well of a 96-well U-shaped plate. […] After incubating at 4° C. for 1 h, the samples were centrifuged at 1000 rpm for 3 mins and rinsed once with PBS+1% FBS. 100 μl of 1:1000 diluted goat anti-human IgG (H+L)-AlexaFluor488 (purchased from eBioscience, Cat. No. A11013) was added to each well, and incubated at 4° C. for 45 mins. The samples were centrifuged at 1000 rpm for 3 mins, rinsed twice with PBS+1% FBS, resuspended in 200 μl of PBS+1% FBS, and transferred to a flow tube for on-board detection.

[2] = target: T1, CD47 on human platelets; experiment: flow cytometry, human platelets; remark: listed apart in the source
Description: as §1

[3] = target: T2, CD47 on human erythrocytes (human, UniProt Q08722 19-323); experiment: flow cytometry, human erythrocytes
T2 construct: whole, on cells; Kept apart from m1 because the same antibodies behave differently on these cells

[4] = target: T3, CD47 on cynomolgus macaque erythrocytes (cynomolgus macaque, UniProt A0A5F8AK49 19-323 (rhesus entry)); experiment: flow cytometry on cynomolgus macaque erythrocytes of 4 animals
T3 construct: whole, on cells

[5] = target: T2, CD47 on human erythrocytes; experiment: flow cytometry, human erythrocytes, first individual
[6] = target: T2, CD47 on human erythrocytes; experiment: flow cytometry, human erythrocytes, second individual
[7] = target: T4, CD47 on cynomolgus macaque platelets (cynomolgus macaque, UniProt A0A5F8AK49 19-323 (rhesus entry)); experiment: flow cytometry, cynomolgus macaque platelets, animal 186#
T4 construct: whole, on cells

[8] = target: T4, CD47 on cynomolgus macaque platelets; experiment: flow cytometry, cynomolgus macaque platelets, animal 194#
[9] = target: T4, CD47 on cynomolgus macaque platelets; experiment: flow cytometry, cynomolgus macaque platelets, animal 567#
[10] = target: T5, biotinylated-CD47 (ACRO Biosystems Cat. No. CD7-H82E9) (UniProt Q08722 19-139, biotinylated (site not stated)); experiment: competition ELISA; blocked: biotinylated-CD47 binding to coated SIRPα-His
T5 construct: also called CD47 recombinant protein
Description: After rinsing 4 times with PBST, 200 μl of PBS+1% BSA was added to each well, blocking for 1 h at room temperature, and rinsing 4 times with PBST. […] The 96-well plate was rinsed 4 times with PBST, 100 μl of Steptavidin-HRP (Invitrogen #434323) diluted 1:2500 was added to each well, and incubated at room temperature for 1 h. After rinsing the 96-well plate four times with PBST, 100 μl of TMB substrate (Cell Signaling, Cat. No. 7004) was added to each well, and after color development at room temperature for 10 mins, 50 μl of stop solution was added to stop the reaction.

[11] = target: T6, Human CD47 recombinant protein (Human CD47 His Tag), ACRO Biosystems Cat. No. CD7-H5227 (human, UniProt Q08722 19-139); experiment: SPR BIAcore 8K, antibody captured by anti-human IgG Fc on CM5, huCD47 (His tag) in flow, 25 C, 1:1 model
T6 construct: bought protein; also called huCD47-His; huCD47; not shown: His tag
Description: The binding time of the huCD47 to the antibody was 180 s, the dissociation time was 900 s, and the reaction temperature was 25° C. The binding constant ka, the dissociation constant kd and the affinity KD were calculated by FitGlobal using BIAcore 8K Evaluation software (GE Healthcare) according to the 1:1 binding model.

[12] = target: T7, human CD47 on the cell membrane surface of CD47 positive tumor cells (Raji, NUGC-4, Jurkat) (human, UniProt Q08722 19-323); experiment: FACS on Raji cells, VHH 5 µg/mL
T7 construct: whole, on cells; also called huCD47 on the cell membrane surface; cell surface CD47
Description: (§2) Antibodies that can bind to CD47 positive cells were screened by flow cytometry (FACS). Human Burkitt's lymphoma cells Raji (purchased from the Cell Bank of the Chinese Academy of Sciences, Cat. No. TCHu 44) were cultured in RPMI-1640 medium (purchased from Gibco, Cat. No. 11875-093) comprising 10% fetal bovine serum FBS (purchased from Gibco, Cat. No. 1009141) at 37° C. with 5% CO₂.
(§3) Raji cells were collected by centrifugation at 800 rpm for 3 mins, rinsed once with PBS+1% FBS and resuspended for counting. In a 96-well plate, 1×10⁵ Raji cells were added to each well, and then the VHH (purified) samples were added in a gradient dilution. The final concentrations of VHH were 5, 0.5, and 0.05 μg/mL, respectively. After mixing, it was mixed with Raji cells and incubateed at room temperature for 1 h. Raji cells were collected by centrifugation at 1400 rpm for 3 mins. […] The cells were rinsed twice with PBS+1% FBS and analyzed on an iQuePlus flow cytometer.
(§4) The mean fluorescence intensity (MFI) of the control well with only fluorescent secondary antibody was used as the mean fluorescence intensity of the background value, and the multiple of the mean fluorescence intensity of the sample and the mean fluorescence intensity of the background value was used to evaluate the binding strength of the VHH single-domain antibody to Raji cells.

[13] = target: T7, human CD47 on the cell membrane surface …; experiment: FACS on Raji cells, VHH 0.5 µg/mL
Description: as §2, §3, §4

[14] = target: T7, human CD47 on the cell membrane surface …; experiment: FACS on Raji cells, VHH 0.05 µg/mL
Description: as §2, §3, §4

[15] = target: T6, Human CD47 recombinant protein (Human …); experiment: competition ELISA: huCD47-His coated, VHH against 5 nM SIRPα-mIgG1
Description: 100 μl of 1 μg/mL huCD47-His antigen (purchased from ACRO Biosystems, Cat. No. CD7-H5227) was add to a 96-well plate, and coated overnight at 4° C. The plate was washed three times with 250 μl of PBST, and added 100 μl of purified VHH to the final concentrations of 500, 50, 5, and 0.5 nM, respectively, and incubated at room temperature for 1 h. […] After washing the plate three times with PBST, goat anti-mouse HRP-conjugate (purchased from Invitrogen, Cat. No. 31430) diluted 1:5000 was added and incubated for 45 mins. After washing the plate three times with 250 μl of PBST, TMB (purchased from Cell Signaling Technology, Cat. No. 7004) as a chromogenic substrate was added and developed color for 10 mins. After quenching the reaction with 0.5M HCl, data was read on a microplate reader.

- EC50 (read off the curve) [1]: ~0.02 µg/mL
- EC50 (read off the curve) [2]: ~0.8 µg/mL
- EC50 (read off the curve) [3]: ~2 nM
- EC50 [4]: 0.01 to 0.03 µg/mL
- EC50 (read off the curve) [5]: ~0.03 µg/mL
- EC50 (read off the curve) [6]: ~0.02 µg/mL
- EC50 (read off the curve) [7]: ~0.3 µg/mL
- EC50 (read off the curve) [8]: ~0.3 µg/mL
- EC50 (read off the curve) [9]: ~0.5 µg/mL
- IC50 (read off the curve) [10]: ~0.3 µg/mL
- Kd [11]: 7.68 nM
- koff [11]: 0.055 s⁻¹
- kon [11]: 7.16e+06 M⁻¹ s⁻¹
B1: control antibody 5F9 (antibody, human IgG4 S228P, kappa)
heavy: not shown
light: DVLMTQTPLSLPVSLGDQASISCRSSQSIVYSNGNTYLGWYLQKPGQSPKLLIYKVSNRFSGVPDRFSGSGSGTDFTLKISRVEAEDLGVYHCFQGSHVPYTFGGGTKVEIKRTVAAPSVFIFPPSDEQLKSGTASVVCLLNNFYPREAKVQWKVDNALQSGNSQESVTEQDSKDSTYSLSSTLTLSKADYEKHKVYACEVTHQGLSSPVTKSFNRGEC
notes: also called 5F9 antibody

- Mean fluorescence intensity (multiple) [12]: 152 fold
- Mean fluorescence intensity (multiple) [13]: 61.4 fold
- Mean fluorescence intensity (multiple) [14]: 27.2 fold
- IC50 [15]: 15 nM
B2: DX-36699 VHH single-domain antibody (VHH)
VHH: DVQLQASGGGSVEAGGSLTLSCLASGFYNMRWYRQAPGNERELVARIGIGGSTDYADSVKGRFTISRGNAKNMVHLQMNSLKPEDTAVYYCWGGGYWGQGTQVTVSS
notes: purified from E. coli (NiNTA)

- Mean fluorescence intensity (multiple) [12]: 204 fold
- Mean fluorescence intensity (multiple) [13]: 142 fold
- Mean fluorescence intensity (multiple) [14]: 43.5 fold
- IC50 [15]: 616 nM
B3: DX-36698 VHH single-domain antibody (VHH)
VHH: QVQLVESGGGLVQAGGSLRLSCAASVRTFSIYAMGWFRQAPGKDREFVGAISGRGYTTYYVDSVKGRFTISRDNAKNTVYLQMNSLKPEDTAVYYCAADLYGSRRYADRESYDYWGQGTQVTVSS
notes: purified from E. coli (NiNTA)
